Experimental findings from publication PMC7746861, “Acetate Metabolism in Archaea: Characterization of an Acetate Transporter and of Enzymes Involved in Acetate Activation and Gluconeogenesis in Haloferax volcanii” (Frontiers in Microbiology, 2020) are described below.

Read-outs that look alike come from different tables or passages of the source.

As usually defined, the stoichiometry N is the number of molecules, sites or subunits per partner or assembly. The Km is the substrate concentration at which the rate is half of its maximum. As a reminder, the Vmax is the rate approached at saturating substrate.

Data set [1] concerns the target Malic enzyme Mae1 from Haloferax volcanii, recombinant (Haloferax volcanii). As to the kind of experiment: SEC; Superdex 200 HiLoad column (1.6 x 60 cm), flow rate 1 ml per min, calibrated with HMW and LMW kits (GE Healthcare); native mass compared with the subunit mass by SDS-PAGE; 50 mM Tris-HCl, pH 7.5, 1.5 M KCl. On the technique in general: SEC sorts molecules by how far they enter the pores of the column.

Substrate in data set [2]: CC(=O)O
Briefly: purified protein. Conditions: acetate activation, ATP, CoA.

Substrate in data set [3]: CC(C)(COP(=O)(O)OP(=O)(O)OC[C@H]1O[C@@H](n2cnc3c(N)ncnc32)[C@H](O)[C@@H]1OP(=O)(O)O)[C@@H](O)C(=O)NCCC(=O)NCCS
Briefly: purified protein. The class given is biochemical, Haloferax volcanii. The settings on record: acetate activation, ATP, CoA.

Substrate in data set [4]: Nc1ncnc2c1ncn2[C@@H]1O[C@H](COP(=O)(O)OP(=O)(O)OP(=O)(O)O)[C@@H](O)[C@H]1O
Briefly: purified protein. The class given is biochemical, Haloferax volcanii. The settings on record: acetate activation, ATP, CoA.

Data set [5] concerns the molecule itself. Briefly: SEC; Superdex 200 HiLoad column (1.6 x 60 cm), flow rate 1 ml per min, calibrated with HMW and LMW kits (GE Healthcare); native mass compared with the subunit mass by SDS-PAGE; 50 mM Tris-HCl, pH 7.5, 1.5 M KCl.
Data set [6] concerns the molecule itself. The data set is described as above. The source holds these as a separate data set.
Substrate in data set [7]: CC(=O)SCCNC(=O)CCNC(=O)[C@H](O)C(C)(C)COP(=O)(O)OP(=O)(O)OC[C@H]1O[C@@H](n2cnc3c(N)ncnc32)[C@H](O)[C@@H]1OP(=O)(O)O
As to the kind of experiment: purified protein. In kind it is biochemical, Haloferax volcanii. Conditions: acetate formation (reverse), AMP, PPi, MgCl2, 2 M KCl, pH 7.0, 42°C.

Substrate in data set [8]: O=C(O)C[C@H](O)C(=O)O
As to the kind of experiment: purified protein. The settings on record: NADP+, MnCl2, 4 M KCl, pH 5.75, 42°C, pH 5.75.

Substrate in data set [9]: NC(=O)C1=CN([C@@H]2O[C@H](COP(=O)(O)OP(=O)(O)OC[C@H]3O[C@@H](n4cnc5c(N)ncnc54)[C@H](OP(=O)(O)O)[C@@H]3O)[C@@H](O)[C@H]2O)C=CC1
Briefly: purified protein. The settings on record: reverse reaction, pyruvate, NaHCO3, MnCl2, 4 M KCl, pH 5.75, 42°C, varied: cofactor. In kind it is biochemical, Haloferax volcanii.

Substrate in data set [10]: NC(=O)c1ccc[n+]([C@@H]2O[C@H](COP(=O)(O)OP(=O)(O)OC[C@H]3O[C@@H](n4cnc5c(N)ncnc54)[C@H](OP(=O)(O)O)[C@@H]3O)[C@@H](O)[C@H]2O)c1
As to the kind of experiment: purified protein. In kind it is biochemical, Haloferax volcanii. The settings on record: L-malate, MnCl2, 4 M KCl, pH 5.75, 42°C, varied: cofactor.

Where [11] appears, read: recombinant, MgCl2, 2 M KCl, pH 7.5, 42°C, pH 7.5.
Setting [12] is: recombinant, MgCl2, 2 M KCl, pH 7.5, 42°C.
The mark [13] stands for this setting: MgCl2, 1 M KCl, pH 7.0, 42°C, pH 7.0.

“Malic enzyme Mae1 from Haloferax volcanii, recombinant”: in data set [1], the stoichiometry N worked out at 8.

B1: ACS2 (Haloferax volcanii DS2) (protein)
chain: MKKPLLVTEFLDRARRYYGDEEAVVATTGERFTYDELGERADGFSAALQSRGVEKGDRVAVLDPNTHYHLEAAYGSMQLGAVHMPLNYRLVPADFEYVLNDADVTAVYADYAFAEKIDAVRDEIPAEIFVTNDPEKAAESTDGEWLDFDELVAESTDYERPEMDEDDIITINYTSGTTGDPKGVCRTHRAETIHAYLISMHQDIGDDDVYLWTLPMFHVNGWGHIYAITGHGAKHVCTRGVEAEAVLDAIRDEDVSYLCAAPTVLNILMKHYREEGGVETTGASPVRAATAGAAPPEATIRTVEDEFGWRLMHVYGATETGPLITTSEAGRYLTDGDDRFGVKKKQGIGYLGTDVRVVDEDGTDVPRDEQSVGEIVVTGNQVMEKYWNKPEETEEAFSARLEGYYHMGDLAVVDENGFISIQDRKKDIIISGGENISSIELEDTLFDHDEVADVAVIPVPSDEWGESPKAFVVPTSGDPDAPGVTAEALIAFCRERIATYKVPKEVEFVTELPKTATGKVQKYELREREWEDEGRMMGEG
notes: full length, Ni-NTA purified (pTA963), homologous expression in H. volcanii
Regarding B1, the Km in data set [2] (setting [11]) is on record as 1.5 mM; in data set [3] (setting [12]), 2.21 mM; in data set [4] (setting [12]), 0.43 mM. The Vmax in data set [2] (setting [11]) is 1.5 µmol/min/mg.

B2: AMP-forming acetyl-CoA synthetase ACS2 from Haloferax volcanii, recombinant (enzyme, UniProt D4GUW5 1-540, looked up)
chain: MKKPLLVTEFLDRARRYYGDEEAVVATTGERFTYDELGERADGFSAALQSRGVEKGDRVAVLDPNTHYHLEAAYGSMQLGAVHMPLNYRLVPADFEYVLNDADVTAVYADYAFAEKIDAVRDEIPAEIFVTNDPEKAAESTDGEWLDFDELVAESTDYERPEMDEDDIITINYTSGTTGDPKGVCRTHRAETIHAYLISMHQDIGDDDVYLWTLPMFHVNGWGHIYAITGHGAKHVCTRGVEAEAVLDAIRDEDVSYLCAAPTVLNILMKHYREEGGVETTGASPVRAATAGAAPPEATIRTVEDEFGWRLMHVYGATETGPLITTSEAGRYLTDGDDRFGVKKKQGIGYLGTDVRVVDEDGTDVPRDEQSVGEIVVTGNQVMEKYWNKPEETEEAFSARLEGYYHMGDLAVVDENGFISIQDRKKDIIISGGENISSIELEDTLFDHDEVADVAVIPVPSDEWGESPKAFVVPTSGDPDAPGVTAEALIAFCRERIATYKVPKEVEFVTELPKTATGKVQKYELREREWEDEGRMMGEG
notes: AMP-forming acetyl-CoA synthetase ACS2 of Haloferax volcanii, gene acs2, locus tag HVO_0896; calculated subunit 59.8 kDa; gene amplified from genomic DNA; also called recombinant ACS2; HVO_0896; source: H. volcanii H1209 (plasmid pTA963, homologous overexpression), purified (Ni-NTA, size exclusion chromatography)
As for B2, in [5], the “stoichiometry N” value was determined as 2.

B3: AMP-forming acetyl-CoA synthetase ACS2 purified from acetate-grown Haloferax volcanii cells (enzyme, UniProt D4GUW5 1-540, looked up)
chain: MKKPLLVTEFLDRARRYYGDEEAVVATTGERFTYDELGERADGFSAALQSRGVEKGDRVAVLDPNTHYHLEAAYGSMQLGAVHMPLNYRLVPADFEYVLNDADVTAVYADYAFAEKIDAVRDEIPAEIFVTNDPEKAAESTDGEWLDFDELVAESTDYERPEMDEDDIITINYTSGTTGDPKGVCRTHRAETIHAYLISMHQDIGDDDVYLWTLPMFHVNGWGHIYAITGHGAKHVCTRGVEAEAVLDAIRDEDVSYLCAAPTVLNILMKHYREEGGVETTGASPVRAATAGAAPPEATIRTVEDEFGWRLMHVYGATETGPLITTSEAGRYLTDGDDRFGVKKKQGIGYLGTDVRVVDEDGTDVPRDEQSVGEIVVTGNQVMEKYWNKPEETEEAFSARLEGYYHMGDLAVVDENGFISIQDRKKDIIISGGENISSIELEDTLFDHDEVADVAVIPVPSDEWGESPKAFVVPTSGDPDAPGVTAEALIAFCRERIATYKVPKEVEFVTELPKTATGKVQKYELREREWEDEGRMMGEG
notes: AMP-forming acetyl-CoA synthetase ACS2 of Haloferax volcanii, gene acs2, locus tag HVO_0896; identified by MALDI-TOF MS of the 69 kDa subunit; Native enzyme, no tag; also called HVO_0896
With B3, in [6], the “stoichiometry N” value came to 2.

B4: AMP-forming acetyl-CoA synthetase ACS1 from Haloferax volcanii, recombinant (enzyme, UniProt D4GUW1 1-662, looked up)
chain: MADGDTELEARLVEQEEFEPSEEFVAQANVSDPAVYDEFEENWPDCWERAAEMLDWDEKYDEVLDDSNPPFYEWFTGGKLNVSYNCVDRHVENGDKNRVAIKWEGEHGETRTYTYQDLYREVNEFAAALRDLGVEEDDVVTLYMPMIPELPIAMLACARIGAPHSVVFGGFSAEALATRMNAADSRFLVTCDGYYRRGDPLDHLDKANEGLDGVDHGVDATVVVDRLGDDGFDHDLKGNQHDWDDLLDEHAGERIDPVERDAEDMLFLMYTSGTTGQPKGVKHTTGGYLAYAAWTSHAVLDIEKEDTYWCSADIGWITGHSYIVYGPLALGTTTVMYEGTPDFPNRDRLWDIIEKYAVDIFYTAPTAIRAFMKWGSRFPEQHDLSSLRLLGTVGEPINPRAWKWYYKHIGNEDCPVVDTWWQTETGGMMITTLPGIKKMKPGSAGPPLPGIDAQIVDTSGKQVDAGRAGYLTVNKPWPGMLRTLYKNDERFIQEYWQEYSDTDSDDPDDWVYFPEDGAKIDGDDYITILGRVDDVINVSGHRLGTMEIESAIVGVEGVAEAAVVGGNHEVKGEAVYAYVITEEGQDEDDEMRGRIIEGVEDAIGPIARPEMVVFTPELPKTRSGKIMRRLLEEIANGEELGDTTTLRNPEVVESIQRQVESE
notes: AMP-forming acetyl-CoA synthetase ACS1 of Haloferax volcanii, gene acs1, locus tag HVO_0894; calculated subunit 71.2 kDa; gene amplified from genomic DNA; also called HVO_0894; source: H. volcanii H1209 (plasmid pTA963, homologous overexpression), purified (Ni-NTA, Superdex 200)
Consider B4, for which the Km in [2] (setting [13]) came out at 0.09 mM; in data set [3] (MgCl2, 1 M KCl, pH 7.0, 42°C), 0.73 mM; in data set [4] (MgCl2, 1 M KCl, pH 7.0, 42°C) it was 0.48 mM; in [7] it was 0.57 mM. Moreover, the Vmax is 0.4 µmol/min/mg in data set [2] (setting [13]) and 0.25 µmol/min/mg in data set [7]. In data set [5], the “stoichiometry N” value came to 2.

B5: AMP-forming acetyl-CoA synthetase ACS9 from Haloferax volcanii, recombinant (enzyme, UniProt D4GRL3 1-538, looked up)
chain: MKKQLLVTDFLDRARTYYGDYEAVVGVDGERFTYAEFGERVDRFSAALQSRGVEKGDRVAVLDPNTHYHLEAAFGAMQCGALHVPLNYRLTTDDYEYLLSDSGATVVYADYQYAGKIEAVRDDVPAEVFVTNDPAAVDGDWLDFEAFLDEADADDYERPEMSEDELITINYTSGTTGDPKGVCRTHRTESLHAQLVTIHHHIGDDDVYLWTLPMFHVNGWGHIYAVTGRGAKHVCTRGVEAEAVFDAITEEDVSFFCCAPTVLSILREYAEEHDPAYAGDNPVRVTAAGSAAPSATIRHTESEFGWEFTQLYGATETGPLIATSDANRLIPDEGGLRFSLKQRQGVAPLGTDLRVVDDDGEQVPRGDATIGEVVVRGNQVMEKYWNKPDETHDAFNDRLEGWYHTGDLAVVNEDGMIAIQDRKKDIIISGGENISSVELEDALFDHDAVGDVAVIPAPSEKWGETPKAFVVPANGDVENPGVTAEELTAYTRDRLAGYKAIREFEFVAEIPKTATGKIQKYELRKREWDDEERMVGQG
notes: 59 kDa subunits; gene amplified from genomic DNA; source: H. volcanii H1209 (plasmid pTA963, homologous overexpression), purified (Ni-NTA, Superdex 200)
In the case of B5, the “stoichiometry N” value in data set [6] amounted to 2.

B6: Mae1 (Haloferax volcanii DS2) (protein)
chain: MGLDDDSRKYHRQDPPGKIEIATTKPTNTQRDLSLAYSPGVAAPCLDIAEDEDAAYEYTAKGNLVGVVSNGSAVLGLGDIGAQASKPVMEGKGVLFKRFADIDVFDVELDIADVDDFVAATKAMEPTFGGINLEDIKAPECFEIERQLREQMDIPVFHDDQHGTAIISGAALLNAADIVDKDLDELDIVFSGAGASALATARFYVSLGAKKENITMCDSSGIITESRVEDGDVNKYKAEFAKPVDEGSLSDAMEGADVLAGLSVGGIVSQEMVRSMADNPVIFAMANPDPEITYEDAKDARDDTVIMATGRSDYPNQVNNVLGFPFIFRGALDVRATEINEAMKRAAAEALAELARQDVPDAVVKAYGDHPLQFGADYVIPKPLDPRVLFEVAPAVAQAAMTSGAARERLDMNAYREELEARLGKSREMMRVVLNKAKSNPKRVALAEGEDEKMIRAAYQMQEEGIAEPILVGETTTILRKAEELGLDFDPTIANPRDGEWDHYVDRLYELRQRKGVTNSEAEELVRRDSNYFASVMVEVGDADAMLTGLTHHYPSALRPPLQIIGTADDADYAAGVYMMTFKNRVVFCADTTVNLDPDEEVLAEITKHTADLARQFNVEPRAALLSYSNFGSVTNEGTRKPRDAAALLQDDPEVDFPVDGEMQADTALVEDILEGTYDFAELDGPANVLVFPNLEAGNIGYKLLQRLGGAEAIGPMLVGMDKPVHVLQRGDEVKDIVNLAATAVVDAQEE
notes: full length with C-terminal PTA domain, Ni-NTA purified, homologous expression in H. volcanii
Regarding B6, the Km in [8] is listed as 0.65 mM; in [9], 0.1 mM; in data set [10], 0.06 mM.
